Data on 1 molecule can be found in EP2832747A1 (Université Catholique de Louvain, dated 2015).

As a reminder, the Kd is a measure of binding affinity in units of concentration. Low values mean tighter binding, high ones weaker binding.

In this assay the target is T1, shGARP-TGFβ (human).
T1 construct: also called immobilized shGARP-TGFβ
Nature of the assay: BIACOR analysis (SPR), immobilized shGARP-TGFβ.

T1 sequence (Q14392 20-627): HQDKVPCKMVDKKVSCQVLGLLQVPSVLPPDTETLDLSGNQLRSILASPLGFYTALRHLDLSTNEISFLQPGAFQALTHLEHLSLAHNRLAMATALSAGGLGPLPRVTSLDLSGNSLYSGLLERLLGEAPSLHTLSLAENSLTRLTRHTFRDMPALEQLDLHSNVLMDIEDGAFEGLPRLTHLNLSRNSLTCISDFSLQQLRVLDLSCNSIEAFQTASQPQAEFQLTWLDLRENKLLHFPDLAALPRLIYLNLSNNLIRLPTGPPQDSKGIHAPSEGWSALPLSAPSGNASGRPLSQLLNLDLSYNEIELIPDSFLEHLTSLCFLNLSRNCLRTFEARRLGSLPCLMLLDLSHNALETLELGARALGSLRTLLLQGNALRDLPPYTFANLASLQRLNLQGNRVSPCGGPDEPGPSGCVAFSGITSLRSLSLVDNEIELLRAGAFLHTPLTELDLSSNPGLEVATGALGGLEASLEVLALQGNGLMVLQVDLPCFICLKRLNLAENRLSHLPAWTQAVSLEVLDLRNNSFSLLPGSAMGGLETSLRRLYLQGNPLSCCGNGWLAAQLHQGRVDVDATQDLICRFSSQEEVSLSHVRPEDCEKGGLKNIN

B1: MHGARP8 (antibody, V domains shown)
VH: QVQLKESGPGLVAPSQSLSITCTVSGFSLTGYGINWVRQPPGKGLEWLGMIWSDGSTDYNSVLTSRLRISKDNSNSQVFLKMNSLQVDDTARYYCARDRNYYDYDGAMDYWGQGTSVTVSS
VL: DIQVTQSSSYLSVSLGDRVTITCKASDHIKNWLAWYQQKPGIAPRLLVSGATSLEAGVPSRFSGSGSGKNFTLSITSLQTEDVATYYCQQYWSTPWTFGGGTTLEIR
notes: Mouse monoclonal from hybridoma MHGARP8 (LMBP 10246CB); used biotinylated in flow cytometry; also called MGARPB; antibody of hybridoma LMBP 10246CB
Consider B1, for which binding was put at a Kd of 0.2 nM.
